Source: the supplement of paper PMC9170038

Test system: MS2 coat protein
Assay: apparent KD of MS2 coat protein; designed switch direction (-1 OFF switch, 1 ON switch): 1; higher = weaker reporter binding
In short: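 The buffer was Tris-HCl pH 7.5 with KCl, MgCl2, BSA, DTT, tRNA and Tween-20. In it, SNAP-549-labelled MS2 coat protein was titrated in doubling steps from 0.7 or 1.5 nM to 3 µM over chip-bound RNA switches transcribed by stalled E. coli RNA polymerase on Illumina chips. Apparent KD is the per-design median over clusters of curve fits to normalised fluorescence.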

[1] = Eterna round: R95, input ligand: FMN 200 uM
[2] = Eterna round: R95, input ligand: microRNA oligo, concentration not stated
[3] = Eterna round: R95, input ligand: none
[4] = input ligand: microRNA oligo, concentration not stated

Row | Sequence | apparent KD of MS2 coat protein [1] | apparent KD of MS2 coat protein [2] | apparent KD of MS2 coat protein [3] | apparent KD of MS2 coat protein [4] | apparent KD of MS2 coat protein (input ligand: FMN 200 uM) | apparent KD of MS2 coat protein (input ligand: none)
1 | GAAGAACAUGAGGAUCACCCAUGUAGGCGGAAGCUAGGAUAUGCGGGAAAGAAGAGAGAAGCAGAAGGAGUAGGUA [JR_SS1_Sub030] (puzzle: Same State 1) | 28.1 nM | 28.3 nM | 38.2 nM | – | – | –
2 | CAAGUACAUGAGGAUCACCCAUGUAGAAGAGAUGCAGGAUAUGUGGGAAAAGGGAGUGUAACAGAAGGGCAAGGAG [JR_SS!_Sub018] (puzzle: Same State 1) | 50 nM | 55.4 nM | 59.9 nM | – | – | –
3 | UGUUGUAUUACAGGAUAUCUAGUAGUUUUAUUUAGAGAAGGGUAUUCACAUGAGGAUCACCCAUGUAUAUACGAGGAAGUUGUG [JMF's solution 36] (Eterna round: R96, puzzle: Same State NG 1) | – | – | – | 29.7 nM | – | –
4 | AGUAGUGUAACAUGAGGAUCACCCAUGUAAGAAGAUGUAACCUAGGAUAUGGAUGAUAUGUUAGACCAGAAGGAGGAUUGUUUA [JR_SSNG3_Sub039] (Eterna round: R96, puzzle: Same State NG 3) | – | – | – | 116 nM | 43.2 nM | 207 nM
5 | GUAGAUGUAGAGGAGGAUAUUCAAUAGAGAACAUGAGGAUCACCCAUGUAAGAGAGAGAUGAUGGGAAGAAGGCUUAGAGAGAUG [Altered State 2-1 - Jieux - Same State 2] (puzzle: Same State 2) | 72.2 nM | 76.6 nM | 94.8 nM | – | – | –
6 | GGCGAACAGGCUAACAUGAGGAUCACCCAUGUGGACUCAUGUUAGGAUAUCGGGAAGGAGGAAACCGAGAAGGGACGGUGAGCU [AK SSNG3-V2-45] (Eterna round: R96, puzzle: Same State NG 3) | – | – | – | 18 nM | 191 nM | 34.1 nM
7 | GGUUUAGCCAGGCGCAAUUGCGCCUGAAAACAUGAGGAUCACCCAUGUUUGGGACAAGCUUUGCUCCUCGUCUUGCA [Edreisza] (puzzle: Sensor for hsa-mir-208a) | 243 nM | 41.9 nM | 330 nM | – | – | –
8 | CUCCCAGCGGGAGGAUAUGGUGCCUUGUUGGUGCUAGAAGGUCCAACAUGAGGAUCACCCAUGUGGGAGUGGUUGAGAGACCUC [SS NG10LRO12] (Eterna round: R96, puzzle: Same State NG 1) | – | – | – | 166 nM | 218 nM | 278 nM
9 | UUAAUUAAUUAAUUAUACAUGAGGAUCACCCAUGUAAGUGAUCAGGAUAUCAGCUCGUUUAGAGCUGAGAAGGGAUCCAUGUAA [SSNG3/14-A3] (Eterna round: R96, puzzle: Same State NG 3) | – | – | – | 135 nM | 85.7 nM | 150 nM
10 | AUUCGUUUGAUAGGAUAUCGCUAUACAUGAGGAUCACCCAUGUUUACCACGCUGGUUUUUCGUACCGAGAAGGAUUCUGAUGAU [JL JR sub007 mod 3] (Eterna round: R96, puzzle: Same State NG 2) | – | – | – | 27.3 nM | 35.4 nM | 41.4 nM
11 | ACAUGAGAGAUAGGAUAUCGUGUACCUACAUGUGACAUGAGGAUCACCCAUGUGGUAAGUAUGAGCGAGAAGGAUCCGAUAUGU [salish99_SSNG2_r04_1001] (Eterna round: R96, puzzle: Same State NG 2) | – | – | – | 38.6 nM | 18.6 nM | 66.4 nM
12 | AUCAAAUACCUAGGAUAUAGUACACACAGCGGGCUAGAAGGAGGCGACCACGCUGACAUGAGGAUCACCCAUGUCCAACAGGAU [Eternabot solution 19] (Eterna round: R96, puzzle: Same State NG 1) | – | – | – | 37.8 nM | 48.9 nM | 52.8 nM
13 | AAGAUGGUUGUAGGAUAUCCACCACUGAAGGGUGGAGAAGGGCACUCCAACAUGAGGAUCACCCAUGUACUACAAGUAGCAUCG [Eternabot solution 26] (Eterna round: R96, puzzle: Same State NG 1) | – | – | – | 188 nM | 267 nM | 240 nM
14 | GCUAGUAUUAUUGUCAACAUGAGGAUCACCCAUGUAUGUUGGCAGGAUAUCGUUUGCAAAGCAAACGAGAAGGGCUAAACUAGC [Mat - Same State NG 3 - JL Mod - D10] (Eterna round: R96, puzzle: Same State NG 3) | – | – | – | 105 nM | 71.9 nM | 185 nM
15 | AGCGAACAUGAGGAUCACCCAUGUAGACCGCGUGUGAUAACACAGGAUAUCAAAGGAAGAAGGAGUGAGAAGGGUGGGAAGGAG [Default title] (Eterna round: R96, puzzle: Same State NG 3) | – | – | – | 53.7 nM | 93.6 nM | 75.1 nM
